Assay results: patent US20060074222A1

Columns and labels:
[1] = target: Pin1 (wild-type, SEQ ID NO:1) (human) (UniProt Q13526); test: cell-based or functional assay
[2] = target: Pin1 R14A (SEQ ID NO:2) (human) (UniProt Q13526); test: cell-based or functional assay

- MALDI-TOF mass increase after PKA treatment [1]: 160 Daltons
- MALDI-TOF mass increase after PKA treatment [2]: 90 Daltons
Substance: phosphokinase A (PKA) (enzyme)
